# Data: PMC5402979, “Tissue-specific enhancer repression through molecular integration of cell signaling inputs”
# Numbering of substitutions follows the chain as printed.
# B1: OddZF BS (dsDNA)
# DNA 1: GCATACAGTAGCACTGATAT
# DNA 2: ATATCAGTGCTACTGTATGC
# B2: CR1 (dsDNA)
# DNA 1: TTAAGCTGCAAATCGCGGCAATCGTTAAGATCACGAAAAACAATTCAAAATTAATGGTAATAAGCAGTT
# DNA 2: AACTGCTTATTACCATTAATTTTGAATTGTTTTTCGTGATCTTAACGATTGCCGCGATTTGCAGCTTAA
# B3: CR1DBSm (dsDNA)
# DNA 1: B2 DNA 1 with A50C, T51C, T52C, A53C, T58C, A59C, A60C, T61C
# DNA 2: B2 DNA 2 with A9G, T10G, T11G, A12G, T17G, A18G, A19G, T20G
# B4: CR1S3+4+6m (dsDNA)
# DNA 1: TTAAGCTGCAAATCGCGGCGGGCGCCCCGATCACGCCGGGCGGTTCGGGATTAATGGTAATAAGCAGTT
# DNA 2: AACTGCTTATTACCATTAATCCCGAACCGCCCGGCGTGATCGGGGCGCCCGCCGCGATTTGCAGCTTAA
# B5: 1Sm (dsDNA)
# DNA 1: TACAATTTAAGCCGTC
# DNA 2: GACGGCTTAAATTGTA
# B6: CR1 3' half (dsDNA)
# DNA 1: CACGAAAAACAATTCAAAATTAATGGTAATAAGCAGTT
# DNA 2: AACTGCTTATTACCATTAATTTTGAATTGTTTTTCGTG
# B7: 1L+ (CR2 large) (dsDNA)
# DNA 1: TACAACAGAAGCCGTCTGGC
# DNA 2: GCCAGACGGCTTCTGTTGTA
# B8: 1Lm (dsDNA)
# DNA 1: TACAATTTAAGCCGTAAAGC
# DNA 2: GCTTTACGGCTTAAATTGTA
# B9: 2Sm (dsDNA)
# DNA 1: AAATTTTAGTCCCAG
# DNA 2: CTGGGACTAAAATTT
# B10: DBS (Dll-binding sequence) (dsDNA)
# DNA 1: TCAAAATTAATGGTAATAAGCA
# DNA 2: TGCTTATTACCATTAATTTTGA
# Legend:
# [1] = biological target: GST-BowlZF (UniProt Q9VQU9 220-382); experiment: EMSA; EMSA, 6% native polyacrylamide, 32P probes; buffers as in cited refs 22 (Bowl) and 26 (HD), not stated here; settings: protein: recombinant, tags: GST (N-term, pGex4T)
# [2] = biological target: T1, GST-C15HD (Drosophila melanogaster, UniProt Q4V729 192-292); experiment: EMSA; up to three complexes; EMSA, 6% native polyacrylamide, 32P probes; buffers as in cited refs 22 (Bowl) and 26 (HD), not stated here; settings: protein: recombinant; tags: GST (N-term, pGex4T); label: 32P (Klenow dCTP)
# [3] = biological target: T1, GST-C15HD; experiment: EMSA; equivalent to CR1; EMSA, 6% native polyacrylamide, 32P probes; buffers as in cited refs 22 (Bowl) and 26 (HD), not stated here; settings: protein: recombinant; tags: GST (N-term, pGex4T); label: 32P (Klenow dCTP)
# [4] = biological target: T1, GST-C15HD; experiment: EMSA; EMSA, 6% native polyacrylamide, 32P probes; buffers as in cited refs 22 (Bowl) and 26 (HD), not stated here; settings: protein: recombinant; tags: GST (N-term, pGex4T); label: 32P (Klenow dCTP)
# [5] = biological target: GST-DllHD (UniProt P20009 120-188); experiment: EMSA; strictly monomeric; abolished by increasing GST-C15HD; EMSA, 6% native polyacrylamide, 32P probes; buffers as in cited refs 22 (Bowl) and 26 (HD), not stated here; settings: protein: recombinant; tags: GST (N-term, pGex4T); label: 32P (Klenow dCTP)
# [6] = biological target: T1, GST-C15HD; experiment: EMSA; monomeric and some dimeric complexes; displaces DllHD dose-dependently; EMSA, 6% native polyacrylamide, 32P probes; buffers as in cited refs 22 (Bowl) and 26 (HD), not stated here; settings: protein: recombinant; tags: GST (N-term, pGex4T); label: 32P (Klenow dCTP)
# T1 sequence (Q4V729 entry or part of it): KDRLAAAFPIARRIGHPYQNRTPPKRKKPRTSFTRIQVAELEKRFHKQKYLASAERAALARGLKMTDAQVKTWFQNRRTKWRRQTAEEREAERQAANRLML
# Sequence of GST-BowlZF (Q9VQU9 220-382): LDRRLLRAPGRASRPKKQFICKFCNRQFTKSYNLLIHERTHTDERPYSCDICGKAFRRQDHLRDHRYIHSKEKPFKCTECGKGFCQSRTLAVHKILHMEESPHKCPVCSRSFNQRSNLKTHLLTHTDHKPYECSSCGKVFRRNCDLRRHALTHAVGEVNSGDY
# Sequence of GST-DllHD (P20009 120-188): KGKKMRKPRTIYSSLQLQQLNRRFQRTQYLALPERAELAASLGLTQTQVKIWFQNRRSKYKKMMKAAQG
binder,measurement,setting,value
B1,binding result,"[1]; label: 32P 5' end (Klenow, one dCTP)",binds
B2,binding result,[2],binds
B3,binding result,[3],binds
B4,binding result,[4],no binding
B5,binding result,[1]; label: 32P (Klenow dCTP),no binding
B6,binding result,[5],binds
same,binding result,[6],binds
B7,binding result,[1]; label: 32P (Klenow dCTP),binds
B8,binding result,[1]; label: 32P (Klenow dCTP),no binding
B9,binding result,[1]; label: 32P (Klenow dCTP),no binding
B10,binding result,[4],no binding
